Test results from the supplement of paper PMC12042874.
± gives the uncertainty stated by the source.

Assay: amyloid nucleation score (Sup35N fusion, yeast selection) (log enrichment); library NNK2; higher = more nucleation; inactive = no reads after selection
How it was run: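 Random libraries were run with three technical output replicates. In each, psi-negative yeast expressing Sup35N fused to peptides of 20 random codons were induced 24 hours with 100 μM copper sulfate and grown 7 days at 30°C on medium lacking adenine and uracil, and input and output plasmid inserts were Illumina-sequenced. The nucleation score is the DiMSum log enrichment of output over input reads, centred on the mode score of non-aggregating sequences, and sequences under 100 input reads were excluded.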

Substance | amyloid nucleation score
ASITYNACLKPLQM | 0.313 ± 0.64
TWVVRVGFMLAYLKQR | 2.63 ± 0.093
HHRMSYHY | 1.72 ± 0.28
WPYGVGLINGWSTMVSYKVL | 0.325 ± 0.8
FRNSTATLYSVGSFTSKTQL | 1.03 ± 0.19
LVFHRVTWLTDNMQWKGTPG | 3.2 ± 0.078
RLVYGLFAYKF | 5.29 ± 0.037
WPVHV | -1.38 ± 1.1
NNVPCRSIADVYALEFLYAS | inactive
RSLDEPSFFIPMPMYWVLGV | 0.271 ± 0.65
RGMVLS | -0.129 ± 1.1
VRSVCRGTHFSK | 0.711 ± 0.42
RCGSHMNLRYISAR | 4.398 ± 0.04
FDFRNGCGNTKVEFSMHRSG | 2.86 ± 0.21
GGQDDVIGLRKSVMAENRVH | 0.537 ± 0.42
TVAVGVIV | inactive
FVLCT | 1.15 ± 0.33
NIVRYAMELCDIN | 4.08 ± 0.1
GLYGMGIQMGPRISVSYPAA | 0.536 ± 0.65
IWCSTGTFWLGGRLITLWRW | 1.02 ± 0.28
LISRL | -0.54 ± 1.1
LRIGRYQN | inactive
VRYGDRSGGLYLKRYFMLSF | inactive
FLIEFLWSMSACSAPVFLVF | -1.41 ± 1.1
SQVLLGQCCMNHKDLSFVWI | 0.708 ± 0.34

Substance | amyloid nucleation score
FCGYSAVVSRAGGCTNLSDE | inactive
SFLFVFSRTGFDCLVDFCFE | -1.76 ± 0.75
VGGLFYLLLMG | -0.865 ± 0.53
LADTVIMGLGSTLFVYVYLI | 3.88 ± 0.077
RNYRLRMDGDCGLFFCCGD | 9.348 ± 0.051
NRIGDIGFSPNMCQAPNDVD | 0.095 ± 0.53
SMRSIREEAVFVLIVVLRGR | 0.261 ± 0.43
FMQICNFIC | 8.012 ± 0.07
WGLHYSRYHLHV | -0.494 ± 0.27
EYTHRSERFIMGNVISKVRM | 0.255 ± 0.49
VCFCQAFYGTRYHKCLVGLF | inactive
VTCGV | 0.179 ± 0.56
HAVDTHFADRGSLALKYSKC | 1.19 ± 0.59
IVCIWNTDVLIGKWTHLSWS | 0.883 ± 0.27
VPPSLLYLQTRDSPPEERMM | 0.374 ± 0.64
KDHSMSELYGGICVRCYKLI | -0.378 ± 1
GTKKARSGARQCLGWEILWM | 0.516 ± 0.43
VMVAYSLLGSRSSILLW | 0.021 ± 0.32
VRLNDWMVHLND | 0.752 ± 0.35
TDLCCRLSIQLINHVYHSCL | 0.351 ± 0.74
GIVFVLLLMNVFEVCRSELM | inactive
SSRLAKIHSMGWFFIFLGIS | -1.22 ± 1
SVSVEYWCSLWDRRDKGSSQ | 0.619 ± 0.81
FDSLAKLFSRIVLLLLLNDR | -0.032 ± 1.1
PACYKDYGSKSPHPPTVGLG | -0.159 ± 0.76

Substance | amyloid nucleation score
DSDNIPNHTYMILFGIQFHS | -0.311 ± 0.65
SLLWFKTVSLLRYNQF | -0.363 ± 0.65
YFVPKLYRVSFKLYKWCFKW | 0.277 ± 0.64
RSMFDWYKCILHDLISLQSR | 0.769 ± 0.47
ILVSMDRLCLWAGTSASGFS | 0.278 ± 0.55
IEVGRHRWALWRVAQSRLIG | 0.308 ± 0.25
APCNKESIKRARGWAVRWSW | 3.12 ± 0.077
VSISCSVWIMGRVYLIRYSG | -1.36 ± 0.78
MDKFFFSFTYGGLSQPDQGV | -1.35 ± 1.1
FRKWNSS | 4.08 ± 0.072
VCYKYRTCYIYISFRSNFST | -1.04 ± 1.1
LKGCQDLLLVDSGGSTTWYG | -0.836 ± 0.63
FVLFENSGLFMGLDICMLCQ | 1.01 ± 0.32
YSMIDTNQFF | inactive
SHLCQLLDDAGLTEQNNSSG | 0.234 ± 0.57
WEGNEHWKCTENLVLAKTGH | inactive
EACRLYHRVVKAFGEARCSV | 0.518 ± 0.28
CDILYLNMFAIFDFFDPVKL | inactive
LFIEGNVSWGYACLHIRSVG | 0.039 ± 0.79
SSGLGTSVGSGILNSRDKDG | 0.434 ± 0.51
RKWLISHPFLRRRGLSSLVF | 0.99 ± 0.2
VYSRDFRIQ | -1.1 ± 0.54
MWSVLNHLRSDSDFSNA | 1.13 ± 0.61
VKNFYVNIFQCGIPPPFKEM | 7.668 ± 0.026
PRILLQSLRI | 2.47 ± 0.064

Substance | amyloid nucleation score
IMTDPRSSLSLWCLNLSVNG | 4.88 ± 0.082
ILVSFYRDSS | 0.416 ± 0.44
HMTSS | -0.495 ± 0.33
FNLYYSRGLSSCLSYSRLEV | -0.532 ± 1
YTSSRGHYSIMGVIRMCDRL | 0.118 ± 0.25
KRLTPS | 0.155 ± 1.1
GKSSHG | 0.93 ± 0.32
LVHSLDFL | -0.389 ± 0.61
FLFLCGTDTFASRNPGRGKG | 0.269 ± 0.51
IFLDHYS | -0.026 ± 0.35
RNLCGFGCVTFRSVLL | 0.279 ± 0.65
LFLHVSGNAYGNNCRLSGPL | 0.369 ± 0.22
VLFDGKPMEVFFWCLPEWVF | inactive
LQCIGNYSDWGSMVGREQSK | -0.066 ± 1
VTALDLMNGIWSRNMPGEVV | -0.18 ± 0.19
SHSSMVLRLVRVWCVCRG | 0.342 ± 0.4
PESGGNAIFAHERMQLGRRS | 0.92 ± 0.57
VVMVVCMV | 0.36 ± 0.62
VERRVGEVRFIDAGVFGLGY | inactive
ALIKTLYY | -0.305 ± 0.48
WVVRPPDTLVLDETRVGSGM | 0.699 ± 0.34
CKTLVSGGL | -0.344 ± 0.41
NKMEDHGMWDLIAYRGVIPL | -0.269 ± 0.22
DVMSSPGVSFITTVAFDVC | 0.382 ± 0.8
LDSQMWNMSGQVRTRIGRSV | 0.459 ± 0.43

Substance | amyloid nucleation score
PWALTFNHCKIDDTKRGHIV | 0.64 ± 0.8
RTLHSLWHNAT | 0.906 ± 0.35
VGFSNGLDFDAVFNMKCQQW | -0.965 ± 0.41
AFFNE | 6.023 ± 0.039
DYSFGMSCLEDIFREHEILG | -0.879 ± 1.1
VEAWGP | -0.948 ± 0.45
YMVDIGSHYKVCVMFHWTFS | -0.88 ± 0.45
ISVYLSRSIFI | -0.326 ± 1
FCPLLPVRFHV | -0.533 ± 0.61
NLQSTMMLYYCFRVMMLLAW | -0.762 ± 0.38
TQNTTYNAYMNLKE | -1.24 ± 1.1
AAKTNCDC | -0.01 ± 1
ILSSFMQ | -0.2 ± 0.41
IIMNVVHEDSLL | 0.019 ± 0.5
GPFNKMYAYEIRQTGAFWRQ | -0.098 ± 0.79
NWTLYFDNRGRVLNTYSTRY | 7.718 ± 0.031
YNLSSLLRCDLAAKTRTIFM | -0.575 ± 0.35
FWQSSLDSS | 0.213 ± 0.38
SMYNSHHSELVNWLNDYIWL | 2.47 ± 0.1
TAALRVILGCMYNIWQMWHR | 1.06 ± 0.57
FLPYFNPEVSGIFCVNRMST | -0.971 ± 0.53
SIKPVLVSDFEKAV | 0.661 ± 0.49
EMVSLCSSRFRRMMGACLGT | 1.39 ± 0.21
GGCCSLPLACNKKGCCYWVA | 1.84 ± 0.47
SVIASWKSCLSLLVFQH | -0.695 ± 0.64

Substance | amyloid nucleation score
HMSRTPQAVRTSHPRVKNRI | -0.026 ± 0.26
DFAGSKDDWTSQMMGVLDGL | -0.689 ± 0.44
IYDNMVDKFVSKGRCAVSPD | -0.066 ± 0.55
VYFSQDQFSYYFTRVESVEV | -0.191 ± 0.45
CARVMLFIMSEMIEFTFYGL | 2.89 ± 0.14
HDRWNWGDCFVIDHALLLMG | 0.393 ± 0.31
HAMPVYRAEFTLISTIL | 0.268 ± 0.32
SHGAWTLFLSVIFCSAQYR | 4.06 ± 0.087
CFMLVFSRTCVSMYTIVNPS | 4.59 ± 0.11
ESGVHWENTEVKGIYSYLCR | inactive
LEAMVTITT | 0.273 ± 0.39
RGCMEVWVLYQSNALSM | 4.18 ± 0.071
GRNLFSFVFQMLV | 0.043 ± 0.29
KRLCYVSYWIYSYSRDGELK | -1.23 ± 1.1
TVSPPLVVFAFRISLRSLRP | 1.12 ± 0.4
GDTCELCSVCQVNGV | 1.15 ± 0.17
AEYIWWMVPVMKELVNEV | 0.362 ± 0.38
EAYVHGMR | 1.07 ± 0.25
TVKCYNL | 0.268 ± 0.46
SMRYNTSLRWDWVDQDAHRL | 4.25 ± 0.068
MMIPFVMYYRFDGYVKRHTG | -0.512 ± 0.76
DMLVCNGLFVFRASKGTIDA | -0.837 ± 1.1
KMMTSSFRMDGVNSTLIWLI | -0.08 ± 1
FTIHYAGTGCWMGMYINSDY | 2.44 ± 0.062
VAVVFTKYSSRTYLGVGSVG | 4.21 ± 0.07

Substance | amyloid nucleation score
MLGHSWHF | inactive
EHLGIIAIRCAQIHKFLPEL | 0.539 ± 0.36
YLFFYNMSRDRSDTWCEHAV | 3.5 ± 0.094
PLYPLCSHPYVGFVTHTISR | -0.053 ± 1
YILCYTVNCNAELSHLVCDI | 7.154 ± 0.058
YNSRNIEDFFVIDLVNWLRL | -1.24 ± 1.1
LLWQTYIPNAGENAVSSQLF | -0.87 ± 1
GNQRFVFVLRMGTVGPLHMF | 0.836 ± 0.55
DCSNDRKIYYNWAIRVVRTD | 0.076 ± 0.35
GCVLSVSWWVGSSLVNWGYY | 5.356 ± 0.052
FYLKFHRCGR | 1.3 ± 0.11
HYVSNEHSVRRTHHRKTKLT | 0.753 ± 0.67
WTDAKALGGLSLLIRWSLEE | 4.13 ± 0.087
GVDLGIRRAFT | 0.578 ± 0.62
HSRQCFTHFGYFTGLGRVRV | 2.18 ± 0.1
GFYYRRSMESGNTFSGCSTA | -0.776 ± 0.62
NLFLFVRGLGRGWSWWWEVR | 0.415 ± 0.8
SYGNDNDGTWWS | 0.676 ± 0.57
RSCSWLLIYRIVILVG | inactive
QMVGWSMYWIKVMRISA | 0.105 ± 1.1
RWSYLYSKEVH | -1.28 ± 0.64
